Measurements as given in the supplement of paper PMC9170038.

Test system: MS2 coat protein
Experiment: apparent KD of MS2 coat protein; designed switch direction (-1 OFF switch, 1 ON switch): -1; higher = weaker reporter binding
Procedure, shortened: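 Apparent KD, taken as the median over clusters for each design, was obtained by curve-fitting normalised cluster fluorescence. Designed RNA switches had been transcribed on Illumina chips by stalled E. coli RNA polymerase and titrated with SNAP-549-labelled MS2 coat protein, doubling from 0.7 or 1.5 nM to 3 µM.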

[1] = Eterna round: R95, input ligand: microRNA oligo, concentration not stated
[2] = input ligand: microRNA oligo, concentration not stated
[3] = Eterna round: R95, input ligand: FMN 200 uM
[4] = Eterna round: R95, input ligand: none

Sequence: ACGAAACAUGAGGAUCACCCAUGUGAGGAUAUUAUGUUAUAAUACAUACUAUACAUAUUAAGAAGGCACAUUGG [Design #12] (Eterna round: R97, puzzle: Exclusion 1)
- apparent KD of MS2 coat protein (input ligand: FMN 200 uM): 138 nM
- apparent KD of MS2 coat protein (input ligand: none): 74.6 nM

Sequence: ACGCCAGGAGGAUAUGCAAUAAGUAACAUGAGGAUCACCCAUGUUCGGGCGAUGCUCGUGGCAGAAGGCCUAGCCG [Edteonra] (Eterna round: R97, puzzle: Exclusion 5)
- apparent KD of MS2 coat protein (input ligand: FMN 200 uM): 329 nM
- apparent KD of MS2 coat protein (input ligand: none): 36.1 nM

Sequence: CCAUCGAGUGUGAGGAUAUGCUGGUCCUUGGAUCAGCAGAAGGCACAUGAGGAUCACCCAUGUGGAAACGGUGG [Mat - Exclusion 4 - JL Mod - D77] (puzzle: Brourd's mod of Exclusion 4)
- apparent KD of MS2 coat protein [1]: 27.7 nM

Sequence: CGUCUGUCAGGAUAUGGUUACAUAGACAUGAGGAUCACCCAUGUGACGUGGGACUAGUGAUUAGAAGGGACGAACG [EX5 #69] (Eterna round: R97, puzzle: Exclusion 5)
- apparent KD of MS2 coat protein (input ligand: FMN 200 uM): 36.5 nM
- apparent KD of MS2 coat protein (input ligand: none): 31.7 nM

Sequence: AUUCCACAUGAGGAUCACCCAUGUCAGGAUAUGCAUAGUCCUGCCACAUAGGACUAGCGCAGAAGGGAUCGGGC [Eternabot (L2) Solution 20] (Eterna round: R97, puzzle: Exclusion 1)
- apparent KD of MS2 coat protein (input ligand: FMN 200 uM): 53.9 nM
- apparent KD of MS2 coat protein (input ligand: none): 19 nM

Sequence: AACAGUACAGGAUAUACAUGAGGAUCACCCAUGUGAGAAACCACUGGCGUACCAGAAAGUAGAAGGGUACUGGA [Moding Maslow Revisited (73) 29] (Eterna round: R96, puzzle: Exclusion 3)
- apparent KD of MS2 coat protein (input ligand: FMN 200 uM): 307 nM
- apparent KD of MS2 coat protein [2]: 160 nM
- apparent KD of MS2 coat protein (input ligand: none): 146 nM

Sequence: UUUUUAUAUGAAGGAUAUACUUAACAUGAGGAUCACCCAUGUGGUGUUGUGAGUGAGUGAGUUUAGUAGAAGGUCAAUUAGUGU [JMF's solution 102] (Eterna round: R96, puzzle: Exclusion NG 2)
- apparent KD of MS2 coat protein (input ligand: FMN 200 uM): 998 nM
- apparent KD of MS2 coat protein [2]: 314 nM
- apparent KD of MS2 coat protein (input ligand: none): 476 nM

Sequence: CUAGUCCGAGGAUAUAUUAUGUGAUACAUGAGGAUCACCCAUGUUAUAUGAUGGAUGUUAAUAGAAGGCGGACUAG [Mat - Exclusion 5 - JL mod - D72] (puzzle: Exclusion 5)
- apparent KD of MS2 coat protein [3]: 246 nM
- apparent KD of MS2 coat protein [1]: 118 nM
- apparent KD of MS2 coat protein [4]: 110 nM

Sequence: AAACCCUGAGGAUAUACAUAACAACAAACCCUCACGUGCCAACAUGAGGAUCACCCAUGUAGAAGGCAGGCCAA [Mod R3 Insanara 6 - Jieux - Exclusion 2] (Eterna round: R97, puzzle: Exclusion 2)
- apparent KD of MS2 coat protein (input ligand: FMN 200 uM): 64.3 nM
- apparent KD of MS2 coat protein (input ligand: none): 18.7 nM

Sequence: UGCAGACGAGGAUAUAAAUUUGAUAACAUGAGGAUCACCCAUGUGAUCGAUAGAUCAAAUUUAGAAGGCGUCUGCA [E5/7-A2] (Eterna round: R97, puzzle: Exclusion 5)
- apparent KD of MS2 coat protein (input ligand: FMN 200 uM): 369 nM
- apparent KD of MS2 coat protein (input ligand: none): 717 nM

Sequence: ACGAAAGCAAACAGGUGAAACAUGAGGAUCACCCAUGUCCUCAUUUGCUCGUCUUAUAAGCUAUGCGAAAGCAUAGC [Mat - Sensor v3 - turn-off var 1 - Eli Mod - D53] (puzzle: Sensor v3, turn-off variant 1)
- apparent KD of MS2 coat protein [3]: 60.4 nM
- apparent KD of MS2 coat protein [1]: 1270 nM
- apparent KD of MS2 coat protein [4]: 72.4 nM

Sequence: UAUUAGCAAGCGAGAUCCCACAUGAGGAUCACCCAUGUGCUCGCAUCCAGAAUUACUGGGUGCAAAGCUCGUCUUAU [Winner reversed engineered 8] (Eterna round: R97, puzzle: Sensor, turn-off variant 1)
- apparent KD of MS2 coat protein (input ligand: FMN 200 uM): 23.1 nM
- apparent KD of MS2 coat protein (input ligand: none): 23.3 nM

Sequence: UACAUGAGGAUCACCCAUGUUUUGUCGUGUAUGGUAUUUAUCUAGGAUAUCAUUAUAUUUAUUUAUGAGAAGGAGAAUAUUAAU [JMF's solution 97] (Eterna round: R96, puzzle: Exclusion NG 3)
- apparent KD of MS2 coat protein (input ligand: FMN 200 uM): 29.9 nM
- apparent KD of MS2 coat protein [2]: 21.9 nM
- apparent KD of MS2 coat protein (input ligand: none): 27.6 nM

Sequence: CAAUUAAUUAAUUAAUAAUACAUGAGGAUCACCCAUGUAGAUCCUACAUACAAGCUUUGUAGCUCGUCUUAUAAUUA [Stov1/3-A3] (Eterna round: R97, puzzle: Sensor, turn-off variant 1)
- apparent KD of MS2 coat protein (input ligand: FMN 200 uM): 368 nM
- apparent KD of MS2 coat protein (input ligand: none): 417 nM

Sequence: UAUUAGUGAGGAUAUGAGUCGUAGAACAAUAGUACUACGUCUCAGAAGGCACAUGAGGAUCACCCAUGUUCCUU [Mod of Fisker - Jieux - Exclusion 4] (Eterna round: R97, puzzle: Exclusion 4)
- apparent KD of MS2 coat protein (input ligand: FMN 200 uM): 71.3 nM
- apparent KD of MS2 coat protein (input ligand: none): 16.1 nM

Sequence: GAUUAUGCGAGCUUUAGGGACAUGAGGAUCACCCAUGUUCGUCUUAUUAGUCUGAGUACACUGACAUACCUAAAUCU [JMF 62] (puzzle: Sensor v3, turn-off variant 1)
- apparent KD of MS2 coat protein [3]: 14.2 nM
- apparent KD of MS2 coat protein [1]: 14.8 nM
- apparent KD of MS2 coat protein [4]: 13.3 nM

Sequence: UCAAAGUCAGGAUAUACAUGAGGAUCACCCAUGUAAAAUUUUAAUUUAAUUUGAAGGUGUAGAAGGGACAAACC [Ex3 #33] (Eterna round: R97, puzzle: Exclusion 3)
- apparent KD of MS2 coat protein (input ligand: FMN 200 uM): 18.3 nM
- apparent KD of MS2 coat protein (input ligand: none): 31.6 nM
